Here are results for 1 substance from publication PMC11322666.

For the test, the target named is UPF3B (UniProt Q9BZI7). The test is described as follows: co-IP of IRE1α S724 mutants. The following applies: reference: wild type; sites S724.

With “IRE1α (inositol-requiring enzyme-1α) (from UniProt O75460) S724A”, the fold change entry was “stronger”.
